# In a protein production outcome set (Wang et al. 2014):
# Test: label from the status in PepcDB records
# 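Also: failed if final PepcDB status was selected cloned or expressed and not failed if soluble or beyond.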
row,Sequence,protein production
1,MDNSLLSEIWRQSLAFPWLSAVILNSFLLALAAIAPKKLLTPWGYGHAWVLGVIIWAALGWRGYLVVLAYFFVGSAVTRIGQKEKEAAGIAEKRSGQRGPENVWGSALTAALCALAIAFGPEPWQLWLALGYVASFSTKLSDTTASEVGKAYGKNTFLITTLQPVPRGTEGAVSVEGTLAGFAAGLALAVLGYGVGLISFGGIIFSTLAAFIATNLESVIGATLQNKWPWLTNEVVNGINTFLGAAIAIGIEATAQLI,failed
2,MDNVGCDKRISWPCHCSKSRTAPRRGSHLMARGRKRRFNPNIPGHIEQEALPKGIYWENGRWYMHEDHPDGGRQVKRTVAFRSARLSELHAIAESRLRGDVRGTLRYLFDRFHEASEFKELQHDTQKDYRRYADTLANYVRKDGSKLGGVQLEHITTPVVQRLLETFANGRPATRLQQALPPTPSKANHLYRYLRRTLAWGVRHGYCKENPAIGVLQAKEAKAFRMPTPDAFEAVLQFARERGALKPHTKGSFPSYLPPVMVLAYSARLRGIEVCSLTDAHRLEHGVHASRRKGSRDTLTTWDAHMTEAWEALLARRSEICNKPGRNFPIPMKPEERFFLIEQTGNPIVKSSLDSAWQRFIPAAIRDGVIKSEERFSLHGLKHRGVTDTEGNRGDKQDAAGHVSSSMTDRYDHELPVVKPPRRR,failed
3,MDPCTGGNGCVHICQSENGTARCACHAGYQLPEDKNICEDINECAEGLSYCGHCCVNSMGSFTCACQTGFELGADRKQCYSNWQQSQPRLYLSLSDFFLLFPVHDYTLPGIELEIVNSCEKNNSVCSHHREHEIGAPRCSCNHGHQLDSDEKTCIDLDECENGEACCAQLCINYLGGYKCRCQEGFQITSNGCECDALDDDELEEEEEE,failed
4,MDPKKADIIRLEALPQDLLGGIVAKVGATTAEDFHNCILVCKELGASANDKHVFKTLNLALLVKKPLSGTQTPSYYENMS,not failed
5,MDPLKRVENELKKCVKCGACRAHCPAFATFGKEPAVARGKVALAQHLLKGDIELDDATYAAMSKCLLCGSCVEKCPNDVPTDEIVVVAREALSGQRGLTTFHAAVGRVIRNRSLMKFGAAAARILGPLFFRKVPETSGLRLRFPLPFLGGKRHIPSIAKKPFLDRHPEVIPGEPGKPRIVYFVGCMTNFCYPQVGEAALALFRHLGCTVIIPKNQQCCGLPGMSGGDLDTVRGLAEKNLAELERYEADYIMTACATCGGALHKFYPNLVGKRHPELAARLKAIAEKTVDAAQLLQKLGLNPEETGAGSDIRVTYHDPCHLRTRAITRQPRELLQGTPGVELAEMEGADKCCGLGGTFNVYHYESSLAINKMKSAAIINTGADAVVTGCPGCMMQLSDGLKQQRNRTRVLHTLEILARSIRP,failed
6,MDPNQPVKFTEFMPDSGGIRTKFIVKGSNFGEDKSQVKVYFKDEVGNEREALVLGVKPDVIYAQVPKQAGGESHVRVEIAGKEAELSNAEKTFKYIVTSSVSTVVGKAKEGGNKDGTLGETTFNTPRYVAVDNDDNVFIFDSDGRTRLSSIEQNKTITLLDGMVIDQPLFIDKEKKQLFGPCDNANFGCFLFDANVSWVADKMGQLLANGGWMHSVVLDPVDSTFVIYRQNTGQLWTQPFDKNRRTLNPNKAKRIGTLYNTGSNGLCAYNPVDKYVYCVLHSKSAVYRFKLTRDADGWPALDGDIDEYIPGAGAGFRDGDVQEAQFKEPRGIAIDKEGNLYIADVGNNRIRKVDTKLNVVTTIAGSGAAGYKDGDPLEAQFNQPWGVYLDKNEFLYIADQNNHCIRKLAIELEHHHHHH,failed
7,MDPNVITVTSYANIAIIKYWGKENQAKMIPSTSSISLTLENMFTTTSVSFLPDTATSDQFYINGILQNDEEHTKISAIIDQFRQPGQAFVKMETQNNMPTAAGLSSSSSGLSALVKACDQLFDTQLDQKALAQKAKFASGSSSRSFFGPVAAWDKDSGAIYKVETDLKMAMIMLVLNAAKKPISSREGMKLCRDTSTTFDQWVEQSAIDYQHMLTYLKTNNFEKVGQLTEANALAMHATTKTANPPFSYLTKESYQAMEAVKELRQEGFACYFTMDAGPNVKVLCLEKDLAQLAERLGKNYRIIVSKTKDLPDV,not failed
8,MDPRQFEHTVVADNDIHSIVMSYLLHNCFNETADSLASSTGVKQPAIDRDNMERRKQIIHFILERKALKAFELTEQLAQDLLEKNKDLQFDLLCLHFVELICAGNCTEALKFGKTRLAPFGKVKKYVEKLEDVMALLAYEDPEKSPMFHLLSSEYRQQVADNLNRTILEHTNHPSYTPMERIIQQVTVVRQYLTEENGKDAFPPFSLKDSLKG,failed
9,MDPSRLLRTERERKAVMPPFSPGPLPIDPVLPALLEALASHGRAVLIAPPGAGKTTRVPPALLGALWLGGQKVVMLEPRRLATRAAARRMAFEAGEAVGQRFGFRVRGESRSGPLTRVEVMTEGILTRRIQDDPELAGVGCVILDEFHERGLQGDLAFALLREIQGALRPDLRLLVMSATLDGAAIAALMDDAPVIESHGRAFPVTITHGERPAARDLGPAMARTILRALEDEPGSVLAFLPGEREIAAVAGALARALPADTVLRPLYGALPPAEQDAAISPCPPGQRKVVLATDIAETSLTIEGVRIVVDSGLRRSPRFDPQTGLSRLDTVRISQAGAEQRRGRAGRLEPGVCLRLWPEAEHRALPAQETPEILAADLAPLALELARWGARDAAALCWPTPPPPGPLAQARDLLTSLGALEPAGGLSAHGAAMAALPLHPRLAHMVLAAKADGADDGALACLLAALLAERDILRPGPGAARDRDLTTRLEILIGQGRRAPAGQILRQPTLGAVRDEAARLRQLAGIAASASPEPARCGRVLARAYPDRIAQARPGQPGRFLLSSGRGALIDVGDPLAAAAFLAVAEVDGAGSEARVFLAAPLDRADLEELFDEALRPCETVTWDPRAEAVVARVERRLGALVFESRDLPDRADPARTTPAVCAGIRRLGLGCLPWTRETDRLRARVAFLHRVHSADDWPDLSDDALLASLADWLGPWLDGITRRSAFARIDLMAALKALIGWRRLADLDRLAPAQMDVPSGVKVALDYEVPDGPVLAARVQQLFGLTRTPAVLDGGHPVLVHLLSPAGRPLQVTRDLAGFWKGSYAEVRKDMRGRYPKHPWPEDPTGAEATNRVKPRGQ,failed
10,MDPWDTYNIPLDHQHRLRNRRDHRHPSFSSTLLDQIYRSIDDSSTNSSSMRKTKHQNREDTRVSANRRDDFNRSKNLKTIEPVFFKHSSSSSSDSSGFSSSESDYFYRRSKSSPAISHPKPIRTTVERFERSPQNHRPNSSNKQEHGSFLKTKSKALKIYSDLKKVKQPISPGGRLATFLNSIFTGAGNTKKLNKINTTVTSTTAAAAAASSTTTCSSASSFSRSCLSKTPSSSEKSKRSVRFCPVNVIFDEDSSKYNNKNNKVYGNNEREYESIRHTLENRVMEENRRVIEAAKELLRSYQKKNKEVIEVSVEDDEEDDDDDALSCTSSDLFELDNLSAIGIDRYREELPVYETTRLNTNRIISR,failed
11,MDQESNATSQDILKQHAAHYESDMGGLPEALVQLAEYAPETFDAYSRMRTTMLKSEADGAKLPLKYKHLILVVLDAIRDEPIGIVNHTRAAMNAGLSVDELIEGILLGIIVYGMPAWGKTGRKAVTFAVEFEKELAGKRT,not failed
12,MDQKELQVRKEIQELSFLIFTEPNNYKHYYERGILYGGEHIKSTECRESDYHGDYSQAIEDFDKVIELQPNFANAYYHKACIYFDLGIDDDEAESLLEKALALEPNNSAYTIKYAEVITYHGENGDIAAELLEKVLVQDYSADNCILSAGYLLQYASYDFLIGNDVQALQTYQKAMKRLQHAVEKDHECLEYATNMWSDFAEGCGYDHESIKNGSSLLLPQISVWM,failed
13,MDQKPQPAKTHATEVTVLEGKTMGTFWRASIPGIDAKRSAELKEKIQTQLDADDQLLSTYKKDSALMRFNDSQSLSPWPVSEAMADIVTTSLRIGAKTDGAMDITVGPLVNLWGFGPEQQPVQIPSQEQIDAMKAKTGLQHLTVINQSHQQYLQKDLPDLYVDLSTVGEGYAADHLARLMEQEGISRYLVSVGGALNSRGMNGEGLPWRVAIQKPTDKENAVQAVVDINGHGISTSGSYRNYYELDGKRLSHVIDPQTGRPIEHNLVSVTVIAPTALEADAWDTGLMVLGPEKAKEVVRREGLAVYMITKEGDSFKTWMSPQFKSFLVSEKNLEHHHHHH,not failed
14,MDQMEKITTGVSYTTSAVGTGYWFLQLLDRVSPSQWAAIGVLGSLLFGLLTYLTEVYWQ,failed
15,MDREALDRKRTWVTQGPIVKVILALATPIVAARLLAATQESVDAIFLGRVSTEDLAAPAAASPLLWLFAGLGIGINTTLSALVSQAIGARDYASAQRYASKLLGATLMLGAASALAIILTAETVFILQGFQGRSLEVALAYTLVEAVGMPFMLALFYFNAVMAASGDTRTPFKVSALSSILNVILDPILIFGLILLPPLGAVGAAVATVLARAAAVSIAFYLLLRGAPGFRVKPSMPDRQLIGHILRIGGPVSLQRLVVSMGFLVMMGIVARLGAPVVAAYNVSLVIIHIVQSATFGFNIATATVVGQNLGASNISRAVRAAYTGVALVFGLLSIGAVAIVGGRSMLVSLFTSIEEVQFYAERMISIVALGMPFLGAFFTAMGVARGSGRTAFISALGIARLWLLRIPAAYTLVYIYSLGDMGVWLAMTLSNIIAGTLAIAWVAGRTWAKPIVKRVPPEPLGEKPPAIPEPAINR,failed
16,MDRFENMNAFVRVVETGSISAAADRMDIAKSVVSRRLKELEEHLGVELFHRTTRQMNLTDSGRAFYQQSVRILADVLEAEHATSQFHGRLKGHLKVAVPLSFGLMHLGAAISTFLQTHPDIEFDLDFNDRQVDLLAEGFDLAIRIANLPDSSLIARRLAPIQAVMCASPAYLERMGTPQAPEELIRHRCLVYNLVSHSDNWNVYGTTGELIKTRIIPYLKASNGEFLRDAAVDGLGIVLLPTFIVYREIQRGALIPILTGYHYAQLAAYAIYPQTRHLSQRVRAFVDFLSQRFEGMPYWDACLNQ,failed
17,MDRGEQGLLRTDPVPEEGEDVAATISATETLSEEEQEELRRELAKVEEEIQTLSQVLAAKEKHLAEIKRKLGINSLQELKQNIAKGWQDVTATSAYKKTSETLSQAGQKASAAFSSVGSVITKKLEDVKNSPTFKSFEEKVENLKSKVGGTKPAGGDFGEVLNSAANASATTTEPLPEKTQESL,failed
18,MDRIIEKLDHGWWVVSHEQKLWLPKGELPYGERANFDLVGQRALQIGEWQGEPVWLVQQQRRHDMGSVRQVIDLDVGLFQLAGRGVQLAEFYRSHKYCGYCGHEMYPSKTEWAMLCSHCRERYYPQIAPCIIVAIRRDDSILLAQHTRHRNGVHTVLAGFVEVGETLEQAVAREVMEESGIKVKNLRYVTSQPWPFPQSLMTAFMAEYDSGDIVIDPKELLEANWYRYDDLPLLPPPGTVARRLIEDTVAMCRAEYE,not failed
19,MDRIPFGIRQLDSIINGGAPAGSVVLLSGEAGAGSREFMHTSALINGLEQVDTELHDLYYGDRSPDAVAPDEVHYISFTTNESQLVSEMRLAMDDDVVDKGSRAVEFHDLSERYFHISPVPREWYASETASITDLRARHEREDLLGTLGMVLNEVAANNLVVIDSLSDLVSAMGEEIEWSDISSLVQGLQKAAHQWGCLLLLHINPETLSTVRHGQLVDASHGTMEFAWESGGSTRARTLVVQQFRGVLSQIEDEDIVQFETELGDAGFDISDVRKIRLEHHHHHH,failed
20,MDRLSYAIGDKAVLNNIRVQFQPGSVTALLGPNGAGKSTLLKALCQEIPSAQGSIKLGHCQLVDWPRAELAKSLAVLPQHASLTFPFTVDEVVAMGLYPLTLSQKEGQQLVTKWLAEVGVLHLARRSYPTLSGGEKQRVQLARVLTQLSQSPFPPILLLDEPTSALDLAQQHKVLALAKNLAHKHAYTVIVVLHDLNQAARYSDRVIVLKQGEIVSEGTPNDALSIDIIRQVWDYEPEFIPAPQGDYPLIF,failed
21,MDRNEVRHAWDSVSETYAERRDPTGSDAALLEDLLERLPEAPTVLDVGCGDGARTLANLPPRSVGLDFSRAGLDLAAETVPDSRLVQGDMGSLPVTTDSVDAITAYHAVFHVQRDQHPEVYREFARVLRPGGTVLMTLPSGQFETVRRGWMGGSMFFSAPGRRATLDQLADAGFTETETVTATDPLGSDSEFVFATLADALEHHHHHH,not failed
